# In paper PMC11757143, “Generation and characterization of OX40-ligand fusion protein that agonizes OX40 on T-Lymphocytes” (Frontiers in Immunology, 2024):
# Several values for one entry are separate records, joined by “and”; a condition that tells them apart may be missing. Equal entries are not always repeated.
# Molecular target: the molecule itself
# Assay: non-reducing SDS-PAGE and immunoblot; recombinant OX40L proteins in Laemmli sample buffer, non-heated/non-reducing, SDS-PAGE, immunoblot with anti-PA tag antibody; oligomers judged by molecular weight
row,Protein,stoichiometry N
1,"MBL-scOX40L (ligand, extracellular TNF homology domain (THD) of mouse OX40L (Tnfsf4), 51Ser-198Leu; first of three copies; peptide linker; second of three copies; third of three copies; Order N to C: PA, MBL, OX40L, Linker, OX40L, Linker, OX40L, His6; Seen as dimer, trimer and multimers on non-reducing gels; also called OX40L-fusion protein (E); source: Anti PA tag Antibody Beads; not shown: His6, C-terminal, kept) not shown",2 and 3
2,"MBL-OX40L (ligand, extracellular TNF homology domain (THD) of mouse OX40L (Tnfsf4), 51Ser-198Leu; Seen as dimer, trimer and hexamer on non-reducing gels; also called OX40L-fusion protein (A)) not shown",2 and 3 and 6
3,"Fc-MBL-OX40L (Fc fusion, extracellular TNF homology domain (THD) of mouse OX40L (Tnfsf4), 51Ser-198Leu; Order N to C: Fc, PA, MBL, OX40L; Seen as dimer, hexamer and higher-order multimers on non-reducing gels; also called OX40L-fusion protein (B); not shown: Fc (human IgG1: hinge, CH2, CH3), N-terminal, kept) not shown",2 and 6
